Read-outs that look alike come from different tables or passages of the source.
How the values were obtained:
Assay in all cases: two-hybrid
[1] = target: KpsC (E. coli K1 (strain EV36)) (UniProt P42217)
[2] = target: KpsC (E. coli K1 (strain EV36)) (UniProt P42217); remark: listed apart in the source
[3] = target: NeuS (E. coli K1 (strain EV36))
[4] = target: NeuS (E. coli K1 (strain EV36)); remark: listed apart in the source

Row | Substance | beta-galactosidase activity, early [1] | beta-galactosidase activity, early [2] | beta-galactosidase activity, early [3] | beta-galactosidase activity, early [4] | beta-galactosidase activity, late [3] | beta-galactosidase activity, late [1] | beta-galactosidase activity, late [4] | beta-galactosidase activity, late [2]
1 | NeuS (enzyme) | 18 Miller units | 15 Miller units |  |  |  |  |  | 
2 | NeuE (natural protein) |  |  | 17 Miller units | 16 Miller units |  |  |  | 
3 | KpsC (from UniProt P42217 1-675) (natural protein) | 220 Miller units | 200 Miller units | 560 Miller units | 420 Miller units | 4700 Miller units | 540 Miller units | 5540 Miller units | 760 Miller units
4 | KpsE (natural protein) | 65 Miller units | 230 Miller units |  | 140 Miller units |  | 120 Miller units | 1050 Miller units | 1170 Miller units

From PMC2408645
